Literature values in publication PMC6893859 (Regulatory toxicology and pharmacology : RTP, 2018).

Tests used:
patients = conditions: human, in vivo
humans = conditions: human, in vivo

Substance	safety and tolerability (patients)	tolerability (humans)
CER-001: complex between recombinant human ApoA-I and dipalmitoyl phosphatidylcholine and sphingomyelin	safe and well tolerated	–
CSL-112: reformulated reconstituted and purified ApoA1 (from CSL-111)	–	well tolerated
